{"source": "patent US20200392244A1", "about": "(CRESCENDO BIOLOGICS, published 2020)", "binders": {"B1": {"name": "single VH domain antibody 13.1 (VHH)", "VHH": "EVQLVESGGGSVQPGGSLRLSCAASGFTFSDYWMTWVRQVPGKGLEWVANIKQDGSEKYYVDSVKGRFTISRDNAKNSLYLQMNSLRAEDTAVYYCARDRGGAVALYHNGMDMGGQGTTVTVSS", "notes": "human single VH domain; C-terminal His(-myc) tag not included; also called family 13"}, "B2": {"name": "single VH domain antibody 5.1 (VHH)", "VHH": "QVQLVESGGGVVQPGRSLRLSCAASGFTFNNYGMHWVRQAPGKGLEWVAIISYDGNTKYYTDSVKGRFTISRDNSKNTLYLQMNSLRVEDTAVYYCAKGLWPSDVWGQGTTVTVSS"}, "B3": {"name": "3.2 (VHH)", "VHH": "EVQLVESGGGVVQPGRSLRLSCAASGFPLISYGMNWVRQAPGKGLDWVAFISYDGSNKYYADSVKGRFTISKDNSKNTLYLQMNSLRAEDTAVYYCAKDRIVGARVPDAFDIWGQGTMVTVSS"}, "B4": {"name": "single VH domain antibody 3.1 (VHH)", "VHH": "B3 VHH with N35H, D46E, I51M, S52T, K58R, K72R, A88D, V93L, K98R, A104G", "notes": "human single VH domain; C-terminal His(-myc) tag not included; also called VH3.1; family 3 parent"}, "B5": {"name": "single VH domain antibody 2.1 (VHH)", "VHH": "EVQLVESGGGVVQPGRSLRLSCAASGFSFSGYGMHWVRQAPGKGLEWVAYISYDGSNKYYADSVKGRFTISRDNSKNTLYLQMNSLRAEDTAVYYCAKDPAWGLRLGESSSYDFDIWGQGTMVTVSS"}, "B6": {"name": "single VH domain antibody 2.12 (VHH)", "VHH": "B5 VHH with G55K, S63K", "notes": "variant of 2.1; human single VH domain; C-terminal His(-myc) tag not included"}, "B7": {"name": "single VH domain antibody 2.13 (VHH)", "VHH": "B5 VHH with M34L, G55A, S63N", "notes": "as for B6"}}, "key": {"[1]": {"molecular_target": "T1, cynomolgus PSMA on CHO cells (cynomolgus, UniProt A0A2K5VNZ0 1-750)", "T1 construct": "whole, on cells; also called cynoPSMA CHO; Cyno PSMA CHO", "test": "FMAT screen, Cyno PSMA CHO cells"}, "[2]": {"molecular_target": "T1, cynomolgus PSMA on CHO cells", "test": "cell-based or functional assay"}, "[3]": {"molecular_target": "T2, recombinant human PSMA (R&D, cat. no. 4234-ZN) (human, UniProt Q04609 44-750)", "T2 construct": "Bought protein; also called rhPSMA; Recombinant PMSA", "T2 sequence (Q04609 44-750 limits assumed)": "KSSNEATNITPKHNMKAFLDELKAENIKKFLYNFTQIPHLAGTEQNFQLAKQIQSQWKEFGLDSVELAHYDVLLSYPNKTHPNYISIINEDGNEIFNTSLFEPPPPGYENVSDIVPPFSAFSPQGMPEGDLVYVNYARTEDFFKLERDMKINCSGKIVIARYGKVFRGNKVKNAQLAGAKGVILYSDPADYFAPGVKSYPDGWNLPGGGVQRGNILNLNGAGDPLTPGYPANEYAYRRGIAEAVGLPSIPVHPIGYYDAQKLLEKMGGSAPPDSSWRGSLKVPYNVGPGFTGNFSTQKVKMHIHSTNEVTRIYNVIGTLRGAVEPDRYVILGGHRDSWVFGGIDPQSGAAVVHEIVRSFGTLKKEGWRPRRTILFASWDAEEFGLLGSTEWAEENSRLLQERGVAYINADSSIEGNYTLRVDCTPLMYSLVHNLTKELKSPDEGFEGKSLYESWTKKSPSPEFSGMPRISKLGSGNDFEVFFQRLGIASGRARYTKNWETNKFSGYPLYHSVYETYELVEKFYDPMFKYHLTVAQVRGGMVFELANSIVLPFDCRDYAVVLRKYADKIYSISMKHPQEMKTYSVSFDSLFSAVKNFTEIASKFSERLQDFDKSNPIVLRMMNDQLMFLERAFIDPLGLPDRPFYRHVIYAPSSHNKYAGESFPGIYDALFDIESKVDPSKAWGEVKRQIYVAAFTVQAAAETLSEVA", "test": "HTRF binding assay with 3 nM biotinylated PSMA; VH 7 days in cynomolgus serum at 37 C"}, "[4]": {"molecular_target": "T1, cynomolgus PSMA on CHO cells", "test": "cell-based or functional assay", "remark": "listed apart in the source"}, "[5]": {"molecular_target": "T3, human PSMA on cells (CHO human PSMA, DU145 PSMA, LNCaP) (human, UniProt Q04609 1-750)", "T3 sequence (Q04609 whole entry)": "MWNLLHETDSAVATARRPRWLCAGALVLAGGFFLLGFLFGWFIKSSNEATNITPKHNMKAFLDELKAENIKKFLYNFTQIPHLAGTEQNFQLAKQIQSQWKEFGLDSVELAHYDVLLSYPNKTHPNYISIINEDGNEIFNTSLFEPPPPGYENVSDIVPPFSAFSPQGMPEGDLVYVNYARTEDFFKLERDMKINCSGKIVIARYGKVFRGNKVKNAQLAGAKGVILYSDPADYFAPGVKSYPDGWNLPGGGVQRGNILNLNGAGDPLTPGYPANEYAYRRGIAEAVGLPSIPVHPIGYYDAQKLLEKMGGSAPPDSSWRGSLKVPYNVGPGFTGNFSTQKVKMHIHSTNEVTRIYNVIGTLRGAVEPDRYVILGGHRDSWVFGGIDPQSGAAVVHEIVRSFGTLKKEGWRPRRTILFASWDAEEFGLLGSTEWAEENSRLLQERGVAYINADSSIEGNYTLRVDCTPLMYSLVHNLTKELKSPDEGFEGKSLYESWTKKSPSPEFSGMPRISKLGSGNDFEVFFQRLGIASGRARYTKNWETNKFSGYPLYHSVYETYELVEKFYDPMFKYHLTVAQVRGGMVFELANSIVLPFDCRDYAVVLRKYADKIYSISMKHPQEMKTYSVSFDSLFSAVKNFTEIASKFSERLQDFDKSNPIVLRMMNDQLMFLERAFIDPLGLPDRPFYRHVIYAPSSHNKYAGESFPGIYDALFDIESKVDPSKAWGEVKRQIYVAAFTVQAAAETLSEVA", "test": "cell-based or functional assay"}, "[6]": {"molecular_target": "T3, human PSMA on cells (CHO human PSMA, …)", "test": "FMAT Mirrorball direct cell binding of purified His-tagged VH on LNCaP cells [panel LNCap]"}, "[7]": {"molecular_target": "T3, human PSMA on cells (CHO human PSMA, …)", "test": "FMAT Mirrorball direct cell binding of purified His-tagged VH on CHO cells expressing human PSMA [upper left panel huPSMA CHO]"}, "[8]": {"molecular_target": "T3, human PSMA on cells (CHO human PSMA, …)", "test": "FMAT Mirrorball direct cell binding of purified His-tagged VH on DU145 cells expressing PSMA [panel Du145 PSMA]"}}, "note": "Positions count from the first letter of the chain named."}
{"binder": "B1", "values": [{"measurement": "binding result", "setting": "[1]", "value": "no binding"}]}
{"binder": "B2", "values": [{"measurement": "EC50 (read off the curve), pHrodo Green internalisation", "setting": "[2]", "value": "~2e-09", "unit": "M"}]}
{"binder": "B3", "values": [{"measurement": "EC50 (read off the curve), pHrodo Green internalisation", "setting": "[2]", "value": "~1e-09", "unit": "M"}]}
{"binder": "B4", "values": [{"measurement": "EC50 (read off the curve)", "setting": "[3]", "value": "~1", "unit": "nM"}]}
{"binder": "B5", "values": [{"measurement": "IC50 (read off the curve), His-ZAP killing", "setting": "[4]", "value": "~0.1", "unit": "nM"}, {"measurement": "IC50 (read off the curve), His-ZAP killing", "setting": "[5]", "value": "~0.04", "unit": "nM"}]}
{"binder": "B6", "values": [{"measurement": "EC50 (read off the curve)", "setting": "[6]", "value": "~0.03", "unit": "nM"}, {"measurement": "EC50 (read off the curve)", "setting": "[7]", "value": "~0.1", "unit": "nM"}, {"measurement": "EC50 (read off the curve)", "setting": "[8]", "value": "~0.2", "unit": "nM"}]}
{"binder": "B7", "values": [{"measurement": "EC50 (read off the curve)", "setting": "[7]", "value": "~0.1", "unit": "nM"}, {"measurement": "EC50 (read off the curve)", "setting": "[8]", "value": "~0.2", "unit": "nM"}]}
